Measurements published in the DeepSol protein solubility set.

assay: soluble on expression in E. coli; label from the status in PepcDB or PDB records

Sequence | soluble on expression in E. coli
MGSDKIHHHHHHMQLDKIIAQNIVKRAMNIIGCSVNVMDHHGIIIASGNPARLNQLHTGAVLALRQNRMVEVDENLAEKWNFDAHPGINVPIQYLGNNIGVIGISGVPEQVKPYAELVKMTAELIIEQHILLEKESWNRRYKEEFILQLVKGNLSLAEIQQQAAFFSFALDIPRVVIIIKLLHPNADSLQQLVGYLEQPQFEQDVAILSLDQIIILQPFNIFAQFGKQLKKLLPKDYSQQDYKIAIGAQLECPAGEQLHLSYRSALSTLQYGLKHYPRKTLYFFEQYRLPVLLAGIADSWQAEELLKPLKALFSEENALLFKTLQQYFLSNCDLVLTAQKLFIHPNTLRYRLAKIEQITALSFNKIEDRFSLYLSTVLI | not soluble
MELSDSKVIAADRATVWAALLSPEVLKECVPGCQEMSGSPDEGFEATVVQKVGPVKATFKGGVTLSEMVAPESLTLSGEGKGGAAGFAKGAARVRLEEGADGTTILSYEVEAKVGGKLAQLGSRIIDGFARKMADQFFTRFQEVLEGPGEAESPEAEASGDAKKKGWFKRVISGLEHHHHHH | soluble
MGSDKIHHHHHHMNTIEDNLNQRISARIRIERESRGWSLNDLAERAGASRAMIHKIERGESSPTASMLGRLSGAFGISMSTLIARAEMQEGKLLRFASQPVWRDPQSHYLRRHVSPRSDLPIDLVQIELPPGSDVPMPAASYALARQLIWLQQGELVFVEGNTRHEMQAGDCLELGPPNDCRFINESAETCVYLVVRLNQSPSGS | not soluble
GPGSMLPTVPCFGSQWCIESVMDLSGLVPTSKELTEGQREHIRDLQYEIDEIWNRRGDYKIDSSAWEQMPLFMENITEEDLQRNADCAALASIAYDDVPPEEVAESRKQHGNRAIQLALDPKQVNKENLARATVHCYTEGLAAKCKDPVLNSQLYANRSLAQYIIHNYGHGLEDAQRAIILDPDYYKAYYRAARCAERIGKYDLALDLLAKGRRTNPAPVGRALEDFVDIERVCREGKERAESKKKKENLSTRVKAAQTSSTLRCVTSSGVRCSPRAEVSSEQMGVYGHHEPYFDSEGLLHVPILFMYDEYQQTDFMQDVSCDVCVGELLDELMPFPWDDRGRYQRIDDILVVYKIDGGVKDPKYYEVDLSLPLMEVFRSESYQMPALLPVLHIICKHSDMLTEWDVQMLR | soluble
MSSQPRFIHLRTHTDFSMIDSIVKVKPLVKACAANEMVAMGLTDFTNFCGVVSFYSEMLSSGMKPIIGADVKVKSPLCGDEYFDLTLLAKNNEGYRNITLLLSKAYQRGYNDLPYIDQDWLIEHRDGVIILSGGTQGDVGKKLLKENVAEIESAVAFYQEFFADHFYLALSRTGRPNEERYIQAALKLAERCDLPLVATNDVMFLNTEDFEAHEIRVAIHDGYTLDDPKRPKCYTSQQYFRSEEDMCKLFADIPSALENTLLIAQRCSVTLRLGQYFLPQFPTGDLSTEDFLVQKSKEGLEERLVFLFPDEKVRLEKRPKYDERLQVELDVINQMGFPGYFLIVMEFIQWSKDNDIPVGPGRGSGAGSLVAYALKITDLDPLEFDLLFERFLNPERVSMPDFDVDFCMDGRDRVIEHVAETYGRGAVSQIITFGTMAAKAVIRDVGRVLGHPYGFVDRISKLIPPDPGMTLAKAFETEPQLQTAYDSDEEVRALINMARKLEGVTRNAGKHAGGVVISPTLITDFAPLYCDNEGLHPVTHFDKNDVEYAGLVKFDFLGLRTLTIIKWALDIINVRMVREGKPRVDIAAIPLDDPESFELLKRSETTAVFQLESRGMKDLIKRLQPDCFEDIIALVALFRPGPLQSGMVDNFIDRKHGREEVSYPDAEYQHASLKPILEPTYGIILYQEQVMQIAQVLAGYTLGGADLLRRAMGKKKPEEMAKQRLVFKEGAEKNGIDGELSMKIFDLVEKFAGYGFNKSHSAAYALVSYQTLWLKTHFPAEFMAAVMTSEMDNTDKIVGLYDECLRMGLKVTPPDINIGKHHFSVNEQGEIVYGIGAIKGVGEGPIEALVAARNEGGIFKDLFDLCARVDLKKINRRTFESLIMSGAFDKLGPHRAALSKNLEDALRASDQHAKDEAMGQTDMFGVLTETHEDVENAYANTPPYTEKQILDGERETLGLYLSSHPVSRYLKELSHYTSTRLKDLAPNRRGQISTVAGLVVASRIAMTKKGNRLGIATLDDRSGRLDLTLFGESLEQFGEKLQKDTVIVASGQVSFDDFSGGLKMTVRELMTLDEARSRYVKSLAISLSEHQITPSFIKQFKALLEPVSGGTLPINVYYQSPKGRALLRLGVQWSIIPTDEILTELVNLLGESAVELEFE | not soluble
MSELRVISLDEVSKHNWEDADQSCWIVISGKVYDVTKFLNEHPGGEEVITQLAGKDATVGFLDVGHSKDAIEMANEYLIGQLPESDVPKVETAAAKPSKNEKSSSLLNDFTEIMTSPTWTNFLIPTTMGLVIYAVYKCMFN | not soluble
